Patent US20070116705A1

Molecular target: N-terminus of murine PDE8, containing the PAS/PAC domain, fused to the LexA DNA binding domain (PDE8/LexA) (murine)
Experiment: yeast two-hybrid screen, number of high-stringency positive cDNA clones

Chain of N-terminus of murine PDE8, containing the PAS/PAC domain, fused to the LexA DNA binding domain (PDE8/LexA) (murine) (P0A7C2 other isoform, or with tags, fused parts or gaps limits assumed): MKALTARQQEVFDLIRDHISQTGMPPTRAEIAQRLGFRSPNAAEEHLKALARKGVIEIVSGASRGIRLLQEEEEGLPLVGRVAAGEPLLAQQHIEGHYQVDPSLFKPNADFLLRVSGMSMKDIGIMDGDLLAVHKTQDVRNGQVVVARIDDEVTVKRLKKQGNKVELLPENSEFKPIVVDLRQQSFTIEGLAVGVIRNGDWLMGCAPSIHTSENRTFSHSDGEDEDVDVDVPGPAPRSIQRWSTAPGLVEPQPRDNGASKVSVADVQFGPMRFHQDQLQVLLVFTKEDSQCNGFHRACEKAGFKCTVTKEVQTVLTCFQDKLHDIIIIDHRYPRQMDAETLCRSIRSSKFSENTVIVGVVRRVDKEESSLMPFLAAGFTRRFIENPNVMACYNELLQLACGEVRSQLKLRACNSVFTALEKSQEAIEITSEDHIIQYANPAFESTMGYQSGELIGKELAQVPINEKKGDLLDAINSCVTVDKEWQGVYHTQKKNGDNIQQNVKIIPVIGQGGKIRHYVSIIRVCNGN

Substance	# of clones [clones]
KIAA0898 (from UniProt O94972 1-964)	8
LC8/PIN (Novel)	15
LC8/PIN (dynein 8 kDa light chain) (from UniProt P63167 1-89)	30
